Measured values: paper PMC10397247

Legend:
4H591-bH = target: T1, 4H591-bH; test: two-hybrid library CCNG1;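 further: natural log of median RNA to DNA barcode read ratio; higher means stronger binding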
T1 chain: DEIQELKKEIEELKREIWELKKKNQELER

4H953-bH = target: T2, 4H953-bH; test: two-hybrid library CCNG1;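 further: natural log of median RNA to DNA barcode read ratio; higher means stronger binding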
T2 chain: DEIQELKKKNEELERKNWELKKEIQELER

4H780-bH = target: T3, 4H780-bH; test: two-hybrid library CCNG1;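 further: natural log of median RNA to DNA barcode read ratio; higher means stronger binding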
T3 chain: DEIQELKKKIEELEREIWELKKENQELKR

4H575-bH = target: T4, 4H575-bH; test: two-hybrid library CCNG1;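 further: natural log of median RNA to DNA barcode read ratio; higher means stronger binding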
T4 chain: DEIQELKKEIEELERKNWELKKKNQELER

4H568-bA = target: T5, 4H568-bA; test: two-hybrid library CCNG1
T5 chain: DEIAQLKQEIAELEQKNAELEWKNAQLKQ

4H683-bH = target: T6, 4H683-bH; test: two-hybrid library CCNG1
T6 chain: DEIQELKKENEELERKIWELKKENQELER

4H855-bH = target: T7, 4H855-bH; test: two-hybrid library CCNG1
T7 chain: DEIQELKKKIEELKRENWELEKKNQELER

4H626-bH = target: T8, 4H626-bH; test: two-hybrid library CCNG1
T8 chain: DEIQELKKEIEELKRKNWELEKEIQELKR

4H4073-bH = target: T9, 4H4073-bH; test: two-hybrid library CCNG1
T9 chain: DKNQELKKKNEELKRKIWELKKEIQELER

4H906-bH = target: T10, 4H906-bH; test: two-hybrid library CCNG1
T10 chain: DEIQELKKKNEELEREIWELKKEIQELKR

4H754-bH = target: T11, 4H754-bH; test: two-hybrid library CCNG1
T11 chain: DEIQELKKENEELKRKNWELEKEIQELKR

4H968-bH = target: T12, 4H968-bH; test: two-hybrid library CCNG1
T12 chain: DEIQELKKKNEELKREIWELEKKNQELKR

4H797-bH = target: T13, 4H797-bH; test: two-hybrid library CCNG1
T13 chain: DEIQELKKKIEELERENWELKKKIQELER

4H3926-bH = target: T14, 4H3926-bH; test: two-hybrid library CCNG1; settings: mean of both orientations
T14 chain: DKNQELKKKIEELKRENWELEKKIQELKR

4H457-bH = target: T15, 4H457-bH; test: two-hybrid library CCNG1
T15 chain: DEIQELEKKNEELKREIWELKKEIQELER

4H850-bA = target: T16, 4H850-bA; test: two-hybrid library CCNG1
T16 chain: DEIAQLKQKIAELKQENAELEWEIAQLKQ

4H906-bA = target: T17, 4H906-bA; test: two-hybrid library CCNG1
T17 chain: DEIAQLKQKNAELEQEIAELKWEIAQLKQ

4H591-bN = target: T18, 4H591-bN; test: two-hybrid library CCNG1
T18 chain: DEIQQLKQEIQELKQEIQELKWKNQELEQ

4H584-bA = target: T19, 4H584-bA; test: two-hybrid library CCNG1
T19 chain: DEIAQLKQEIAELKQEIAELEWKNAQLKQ

4H619-bA = target: T20, 4H619-bA; test: two-hybrid library CCNG1
T20 chain: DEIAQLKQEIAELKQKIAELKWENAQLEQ

4H457-bA = target: T21, 4H457-bA; test: two-hybrid library CCNG1
T21 chain: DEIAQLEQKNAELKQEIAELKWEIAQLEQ

4H968-bA = target: T22, 4H968-bA; test: two-hybrid library CCNG1
T22 chain: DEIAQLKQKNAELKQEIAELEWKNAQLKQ

4H918-bA = target: T23, 4H918-bA; test: two-hybrid library CCNG1
T23 chain: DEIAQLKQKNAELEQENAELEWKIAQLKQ

4H3926-bA = target: T24, 4H3926-bA; test: two-hybrid library CCNG1; settings: mean of both orientations
T24 chain: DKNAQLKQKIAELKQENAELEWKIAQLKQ

4H953-bA = target: T25, 4H953-bA; test: two-hybrid library CCNG1
T25 chain: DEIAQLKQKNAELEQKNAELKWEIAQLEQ

4H626-bA = target: T26, 4H626-bA; test: two-hybrid library CCNG1
T26 chain: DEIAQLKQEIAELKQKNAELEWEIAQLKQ

4H4073-bA = target: T27, 4H4073-bA; test: two-hybrid library CCNG1
T27 chain: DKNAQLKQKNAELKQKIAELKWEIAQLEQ

4H754-bA = target: T28, 4H754-bA; test: two-hybrid library CCNG1
T28 chain: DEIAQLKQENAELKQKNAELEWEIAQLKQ

4H780-bA = target: T29, 4H780-bA; test: two-hybrid library CCNG1
T29 chain: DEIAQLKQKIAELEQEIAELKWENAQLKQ

4H797-bA = target: T30, 4H797-bA; test: two-hybrid library CCNG1
T30 chain: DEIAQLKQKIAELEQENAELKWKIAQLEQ

4H591-bA = target: T31, 4H591-bA; test: two-hybrid library CCNG1
T31 chain: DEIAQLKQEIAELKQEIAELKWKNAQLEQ

4H855-bA = target: T32, 4H855-bA; test: two-hybrid library CCNG1
T32 chain: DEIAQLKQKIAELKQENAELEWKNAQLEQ

4H683-bA = target: T33, 4H683-bA; test: two-hybrid library CCNG1
T33 chain: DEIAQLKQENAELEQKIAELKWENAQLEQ

4H575-bA = target: T34, 4H575-bA; test: two-hybrid library CCNG1
T34 chain: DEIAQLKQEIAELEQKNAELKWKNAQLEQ

4H570-bA = target: T35, 4H570-bA; test: two-hybrid library CCNG1
T35 chain: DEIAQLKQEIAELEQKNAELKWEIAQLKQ

4H3974-bA = target: T36, 4H3974-bA; test: two-hybrid library CCNG1
T36 chain: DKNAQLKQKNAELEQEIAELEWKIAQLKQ

4H584-bN = target: T37, 4H584-bN; test: two-hybrid library CCNG1
T37 chain: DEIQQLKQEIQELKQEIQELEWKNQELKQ

4H906-bN = target: T38, 4H906-bN; test: two-hybrid library CCNG1
T38 chain: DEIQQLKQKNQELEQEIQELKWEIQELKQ

4H3974-bN = target: T39, 4H3974-bN; test: two-hybrid library CCNG1
T39 chain: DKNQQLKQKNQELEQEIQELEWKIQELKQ

4H570-bN = target: T40, 4H570-bN; test: two-hybrid library CCNG1
T40 chain: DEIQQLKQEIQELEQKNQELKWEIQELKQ

4H850-bN = target: T41, 4H850-bN; test: two-hybrid library CCNG1
T41 chain: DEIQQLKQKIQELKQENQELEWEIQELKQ

4H619-bN = target: T42, 4H619-bN; test: two-hybrid library CCNG1
T42 chain: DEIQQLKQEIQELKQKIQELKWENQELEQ

4H_APH = target: T43, 4H_APH; test: two-hybrid library CCmax
T43 chain: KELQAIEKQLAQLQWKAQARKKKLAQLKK

GCN2_T = test: two-hybrid library CCmax
4H_BCR = target: T44, 4H_BCR; test: two-hybrid library CCmax; settings: mean of both orientations
T44 chain: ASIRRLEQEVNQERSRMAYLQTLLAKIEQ

4H_GCN4 = test: two-hybrid library CCmax
4H_GCN4, sequence (chain, as listed by the source): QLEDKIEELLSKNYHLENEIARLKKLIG

4H486-AA = target: T45, 4H486-AA; test: two-hybrid library CCmax
T45 chain: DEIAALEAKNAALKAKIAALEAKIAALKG

4H58-AA = target: T46, 4H58-AA; test: two-hybrid library CCmax; settings: mean of both orientations
T46 chain: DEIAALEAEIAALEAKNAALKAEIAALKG

4H895-AA = target: T47, 4H895-AA; test: two-hybrid library CCmax; settings: mean of both orientations
T47 chain: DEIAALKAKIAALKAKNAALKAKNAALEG

4H535-AA = target: T48, 4H535-AA; test: two-hybrid library CCmax; settings: mean of both orientations
T48 chain: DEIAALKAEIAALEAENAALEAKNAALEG

DKNQELKKKIEELKRENWELEKKIQELKR [4H3926-bH]
interaction score (4H591-bH): -1.8
interaction score (4H953-bH): 1.52
interaction score (4H780-bH): -0.369
interaction score (4H575-bH): -0.061
interaction score (4H568-bA): 0.77
interaction score (4H683-bH): -0.233
interaction score (4H855-bH): -0.798
interaction score (4H626-bH): -1.31
interaction score (4H4073-bH): -0.649
interaction score (4H906-bH): -1.18
interaction score (4H754-bH): 0.0882
interaction score (4H968-bH): 1.04
interaction score (4H797-bH): 0.147
interaction score (4H3926-bH): 0.997
interaction score (4H457-bH): 0.423

DEIAQLKQEIAELKQEIAELEWKNAQLKQ [4H584-bA]
interaction score (4H850-bA): 0.521
interaction score (4H906-bA): -0.288
interaction score (4H591-bN): -0.664
interaction score (4H584-bA): 0.598
interaction score (4H619-bA): 1.1

DKNAQLKQKIAELKQENAELEWKIAQLKQ [4H3926-bA]
interaction score (4H457-bA): 0.866
interaction score (4H968-bA): 1.59
interaction score (4H918-bA): -0.539
interaction score (4H3926-bA): -0.117
interaction score (4H953-bA): 0.769
interaction score (4H626-bA): -0.259
interaction score (4H4073-bA): -0.409
interaction score (4H906-bA): -1.13
interaction score (4H754-bA): -0.909
interaction score (4H780-bA): -0.771
interaction score (4H797-bA): 0
interaction score (4H591-bA): -1.19
interaction score (4H855-bA): -1.23
interaction score (4H683-bA): -0.786
interaction score (4H575-bA): 0.34

DKNAQLKQKNAELEQEIAELEWKIAQLKQ [4H3974-bA]
interaction score (4H850-bA): -1.84
interaction score (4H570-bA): -0.136
interaction score (4H906-bA): -1.37
interaction score (4H584-bA): -1.38
interaction score (4H619-bA): -0.503
interaction score (4H3974-bA): -0.293

DKNQQLKQKNQELEQEIQELEWKIQELKQ [4H3974-bN]
interaction score (4H584-bN): -0.919
interaction score (4H906-bN): -0.832
interaction score (4H3974-bN): -0.444
interaction score (4H570-bN): -1.69
interaction score (4H850-bN): 0.5
interaction score (4H619-bN): -0.273

DEIAALEAKNAALKAKIAALEAKIAALKG [4H486-AA]
interaction score (4H_APH): -1.97
interaction score (GCN2_T): -0.249
interaction score (4H_BCR): -1.34
interaction score (4H_GCN4): -1.06
interaction score (4H486-AA): 0.819
interaction score (4H58-AA): -0.289
interaction score (4H895-AA): -1.84
interaction score (4H535-AA): -1.16
